Measured values from the DeepSol protein solubility set.

Assay: soluble on expression in E. coli; label from the status in PepcDB or PDB records

Sequence	soluble on expression in E. coli
NIVLTQSPKSMSVSVGERVTLSCKASENVDTYVFWFQQKPDQSPKLLLYGPSNRYTGVPDRFTGSGSTTDFTLTISSVQAEDLADYHCGQSYSYPYTFGGGTKLEIKRADAAPTVSIFPPSSEQLTSGGASVVCFLNNFYPKDINVKWKIDGSERQNGVLNSWTDQDSKDSTYSMSSTLTLTKDEYERHNSYTCEATHKTSTSPIVKSFNRNEC	soluble
NKMAMIDLAKLFLASKITAIEFSERICVERRRLYGVKDLSPNILNCGEELFMAAERFEPDADRANYEIDDNGLKVEVRSILEKFKLHHHHH	soluble
NKNAFLIVRGNLTYAHSEYLKYEDNTYDKEWWKYKIGYSPNQKWGYIAEGLFIDDAEVANSPVQFGDYKAGDIKYRDMNGDGVINSLDQVPIGHPTSPEINYGFGSTFSYKGFDINFQFHGSAQSSFWIDYDKMSPFFKDSKMSQKTNNQLVKFIANSYWSESNRNRYATWPRLSTTSVANNKELSTWFMRDGSFLRLKLVELGYTVPQKIVSKWGMSNLRLYMSSTNLFVLSKFKDWDVELAGNGLNYPLQRVFNIGVNVSF	not soluble
NKPSLLLYIHGFNSSPLSHKAQVMAEYCKVHRPDIKVIVPRLPSYPSQAAEFLVQLVEEYKDTHQIGLVGSSLGGYLSTWLNHQYGFKAALVNPAVKPYELLADYLGKQVNPYTQEEYFLEEKHMEELLALQVETLHSVDDLWLLQQEGDEVLDYRQAVDKYLACKQTIEKGGDHSFVNFERYPEQIIQFLN	not soluble
NNEIMPGKMKVKATKGEGDGGITSEGNALYNNEGGRAFMYAYVTTKPGMKYVKWEHDSGVVTVELEPPCRFVIDTPTGPQIKYLYFVKNLNNLRRGAVLGYIGATVRLQ	soluble
NPGENPKAQKALKQLFDGAQKDDIHLYKISGYRSYPTQVKLYNNYVKRDGKKAADKYSARPGYSEHQTGLTFDVGGVDSDKNLYASFGKTEEGRWIAKNAHNYGFIIRYPKNKESITGYQYEPWHLRYLGKKKATKVYKSGETLEEFVGLK	not soluble
NQVLSGVSFQLMPGEVHALMGENGAGKSTLMNILTGLHKADKGQISINGNETYFSNPKEAEQHGIAFIHQELNIWPEMTVLENLFIGKEISSKLGVLQTRKMKALAKEQFDKLSVSLSLDQEAGECSVGQQQMIEIAKALMTNAEVIIMDEPTAALTEREISKLFEVITALKKNGVSIVYISHRMEEIFAICDRITIMRDGKTVDTTNISETDFDEVVKKMVGRELTERYPKRTPSLGDKVFEVKNASVKGSFEDVSFYVRSGEIVGVSGLMGAGRTEMMRALFGVDRLDTGEIWIAGKKTAIKNPQEAVKKGLGFITENRKDEGLLLDTSIRENIALPNLSSFSPKGLIDHKREAEFVDLLIKRLTIKTASPETHARHLSGGNQQKVVIAKWIGIGPKVLILDEPTRGVDVGAKREIYTLMNELTERGVAIIMVSSELPEILGMSDRIIVVHEGRISGEIHAREATQERIMTLATGGR	not soluble
NRWGSPWAVKPEDKAKYDAIFDSLSPVNGFLSGDKVKPVLLNSKLPVDILGRVWELSDIDHDGMLDRDEFAVAMFLVYCALEKEPVPMSLPPALVPPSKRKTWLEI	soluble
NSGQSGAESDIRRKSEEIAAHSNEPSAEKPKEEKKWYDRIGIRGYTQFRYSSTVSGDKDAVSYWPDKSVGEDGSFLIRRARLVIFGDINDHLSLYIQPDFASTPSGSSTGHFAQLRDAYADIHFDKNKEFRVRVGQSKIPYSFENLQSSQNRLALDRNDAMNSCCRDERDIGAFFYWAPTHIRDRFKEVMAKNLKGSGDYGMFAFGIYNGQGANRLEGNNGVHMVTRFTYPHQFSNGQILEAGIQALRGRFVPSTGPAGGFTPVMDAPEKGFKDERVGVHAVLYPQPFGLQAEWNWGRGPQLNDGQTMLTESSLNGGYVLATYKIDGLRWGTLFPFVKWQHFKGGQKFERNAPRNHVNDLEFGLEWQVMKEIELTAVYHMMNRTNVASAPYERYKADVLRFQLQWNY	not soluble
NSNFINIGERTNVAGSRKFARLIREKNYEEALTIARHQVENGAQIIDINFDDALLDARSEMETFLRLIASEPEISKVPVMIDSSNFEVLKVGLKSIQGKAIVNSISLKVGEEKFIEEAKFIKNFGAGVVVMAFDEEGQAATYERKIEICKRAYTILTEKVEFPPENIIFDPNILSIATGIEEHDNYAVNYIKAVKWIKENLPYAKVSGGVSNLSFSFRGNDAIRRAMHSVFLYHAINAGMDMGIVNPAMIDLYDDIDKDLLEKVENVVLNKSSNASESLLEFAQTYKKTTETLEKH	not soluble
NSSKCYIQVTGMTCASCVANIERNLRREEGIYSILVALMAGKAEVRYNPAVIQPPMIAEFIRELGFGATVIENIEGR	soluble
